Laboratory results taken from publication PMC2481302.

Target: human purified platelet factor 4/CXCL4 (human)
Test: cell attachment assay; αvβ3-CHO and mock-transfected CHO cells plated on microtiter wells coated with CXCL4 or CXCL4/CTF at the indicated concentrations; 60 min at 37°C in serum-free medium with 0.5% BSA; attached cells stained with Coomassie blue, absorbance at 620 nm; also with 0.25 mM Mn2+ or 2 mM Mg2+

increase of cell attachment with Mn2+ or Mg2+ against no added cation: 25%
Substance: human αvβ3 integrin on CHO cells (αvβ3-CHO, clone A06) (from UniProt P06756 31-1048; P05106 27-788) (receptor)
